Results reported in patent US20250304643A1 (BAINAN BIOTECH, published 2025).
*1 amine or outer side, *2 acyl side, *3 side chain or, on linkers, in order; H or OH if unused. Where no end group is shown, it is not given here. Side-chain parts run from the residue outwards. [ ]: non-standard residue; d: D form. The star is where a group is joined. γGlu = O=C(O)[C@H](CCC(=O)[*:2])N[*:1]; HOOC(CH2)8CO = O=C(O)CCCCCCCCC(=O)*; Palmitoyl = CCCCCCCCCCCCCCCC(=O)*; Decanoyl = CCCCCCCCCC(=O)*; Aib = CC(C)(N)C(=O)O

T1: human glucose-dependent insulinotropic polypeptide receptor (human, UniProt P48546 22-466)
T1 sequence (looked up): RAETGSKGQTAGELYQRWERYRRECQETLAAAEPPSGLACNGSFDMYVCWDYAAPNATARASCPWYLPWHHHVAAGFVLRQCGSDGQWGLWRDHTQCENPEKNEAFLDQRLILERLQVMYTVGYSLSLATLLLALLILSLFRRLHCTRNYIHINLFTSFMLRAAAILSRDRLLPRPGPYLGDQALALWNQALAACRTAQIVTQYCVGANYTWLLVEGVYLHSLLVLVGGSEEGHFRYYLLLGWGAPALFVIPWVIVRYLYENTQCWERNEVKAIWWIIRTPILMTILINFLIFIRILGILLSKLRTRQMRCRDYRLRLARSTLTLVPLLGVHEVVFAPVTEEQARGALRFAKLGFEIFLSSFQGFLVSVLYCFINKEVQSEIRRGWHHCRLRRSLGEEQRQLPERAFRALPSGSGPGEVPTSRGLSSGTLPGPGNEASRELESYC


Target: T1, human glucose-dependent insulinotropic …
Assay: cell-based or functional assay

Binder	Efficacy GIPR	EC50 (nM) GIPR
Palmitoyl-HADGTFISDYSTILDNLAAKDFINWLIQTKITK [Compound no. 45]	91%	
H[Aib]DGTFISDYK([γGlu-Palmitoyl])T[Aib]LDNLAARDFINWLIQTKITKNDWKHNITQ-OH [Compound no. 37]	95%	
Decanoyl-HADGTFISDYSTILDNLAAKDFINWLIQTKITKNDWKHNITQ [Compound no. 3]	76%	
H-H[Aib]DGTFISDYSK([γGlu-Palmitoyl])ILDNLAARDFINWLIQTKITK-OH (SMILES CCCCCCCCCCCCCCCC(=O)N[C@@H](CCC(=O)NCCCC[C@H](NC(=O)[C@H](CO)NC(=O)[C@H](Cc1ccc(O)cc1)NC(=O)[C@H](CC(=O)O)NC(=O)[C@H](CO)NC(=O)[C@@H](NC(=O)[C@H](Cc1ccccc1)NC(=O)[C@@H](NC(=O)CNC(=O)[C@H](CC(=O)O)NC(=O)C(C)(C)NC(=O)[C@@H](N)Cc1c[nH]cn1)[C@@H](C)O)[C@@H](C)CC)C(=O)N[C@H](C(=O)N[C@@H](CC(C)C)C(=O)N[C@@H](CC(=O)O)C(=O)N[C@@H](CC(N)=O)C(=O)N[C@@H](CC(C)C)C(=O)N[C@@H](C)C(=O)N[C@@H](C)C(=O)N[C@@H](CCCNC(=N)N)C(=O)N[C@@H](CC(=O)O)C(=O)N[C@@H](Cc1ccccc1)C(=O)N[C@H](C(=O)N[C@@H](CC(N)=O)C(=O)N[C@@H](Cc1c[nH]c2ccccc12)C(=O)N[C@@H](CC(C)C)C(=O)N[C@H](C(=O)N[C@@H](CCC(N)=O)C(=O)N[C@H](C(=O)N[C@@H](CCCCN)C(=O)N[C@H](C(=O)N[C@H](C(=O)N[C@@H](CCCCN)C(=O)O)[C@@H](C)O)[C@@H](C)CC)[C@@H](C)O)[C@@H](C)CC)[C@@H](C)CC)[C@@H](C)CC)C(=O)O) [Compound no. 12]	107%	
{HOOC(CH2)8CO}-H[Aib]DGTFISDYST[Aib]LDNLAARDFINWLIQTKITK-OH (SMILES CC[C@H](C)[C@H](NC(=O)[C@H](Cc1ccccc1)NC(=O)[C@H](CC(=O)O)NC(=O)[C@H](CCCNC(=N)N)NC(=O)[C@H](C)NC(=O)[C@H](C)NC(=O)[C@H](CC(C)C)NC(=O)[C@H](CC(N)=O)NC(=O)[C@H](CC(=O)O)NC(=O)[C@H](CC(C)C)NC(=O)C(C)(C)NC(=O)[C@@H](NC(=O)[C@H](CO)NC(=O)[C@H](Cc1ccc(O)cc1)NC(=O)[C@H](CC(=O)O)NC(=O)[C@H](CO)NC(=O)[C@@H](NC(=O)[C@H](Cc1ccccc1)NC(=O)[C@@H](NC(=O)CNC(=O)[C@H](CC(=O)O)NC(=O)C(C)(C)NC(=O)[C@H](Cc1c[nH]cn1)NC(=O)CCCCCCCCC(=O)O)[C@@H](C)O)[C@@H](C)CC)[C@@H](C)O)C(=O)N[C@@H](CC(N)=O)C(=O)N[C@@H](Cc1c[nH]c2ccccc12)C(=O)N[C@@H](CC(C)C)C(=O)N[C@H](C(=O)N[C@@H](CCC(N)=O)C(=O)N[C@H](C(=O)N[C@@H](CCCCN)C(=O)N[C@H](C(=O)N[C@H](C(=O)N[C@@H](CCCCN)C(=O)O)[C@@H](C)O)[C@@H](C)CC)[C@@H](C)O)[C@@H](C)CC) [Compound no. 18]	77%	

Results, then the binder that gave them:

Efficacy GIPR	EC50 (nM) GIPR	Binder
114%		Palmitoyl-H[Aib]DGTFISDYSTILDNLAARDFIEWLIQTKITK-OH (SMILES CCCCCCCCCCCCCCCC(=O)N[C@@H](Cc1c[nH]cn1)C(=O)NC(C)(C)C(=O)N[C@@H](CC(=O)O)C(=O)NCC(=O)N[C@H](C(=O)N[C@@H](Cc1ccccc1)C(=O)N[C@H](C(=O)N[C@@H](CO)C(=O)N[C@@H](CC(=O)O)C(=O)N[C@@H](Cc1ccc(O)cc1)C(=O)N[C@@H](CO)C(=O)N[C@H](C(=O)N[C@H](C(=O)N[C@@H](CC(C)C)C(=O)N[C@@H](CC(=O)O)C(=O)N[C@@H](CC(N)=O)C(=O)N[C@@H](CC(C)C)C(=O)N[C@@H](C)C(=O)N[C@@H](C)C(=O)N[C@@H](CCCNC(=N)N)C(=O)N[C@@H](CC(=O)O)C(=O)N[C@@H](Cc1ccccc1)C(=O)N[C@H](C(=O)N[C@@H](CCC(=O)O)C(=O)N[C@@H](Cc1c[nH]c2ccccc12)C(=O)N[C@@H](CC(C)C)C(=O)N[C@H](C(=O)N[C@@H](CCC(N)=O)C(=O)N[C@H](C(=O)N[C@@H](CCCCN)C(=O)N[C@H](C(=O)N[C@H](C(=O)N[C@@H](CCCCN)C(=O)O)[C@@H](C)O)[C@@H](C)CC)[C@@H](C)O)[C@@H](C)CC)[C@@H](C)CC)[C@@H](C)CC)[C@@H](C)O)[C@@H](C)CC)[C@@H](C)O) [Compound no. 7]
92%	1 nM	Ac-H[Aib]DGTFISDYSK([γGlu-Palmitoyl])[Aib]LDNLAARDFINWLIQTKITK-OH (SMILES CCCCCCCCCCCCCCCC(=O)N[C@@H](CCC(=O)NCCCC[C@H](NC(=O)[C@H](CO)NC(=O)[C@H](Cc1ccc(O)cc1)NC(=O)[C@H](CC(=O)O)NC(=O)[C@H](CO)NC(=O)[C@@H](NC(=O)[C@H](Cc1ccccc1)NC(=O)[C@@H](NC(=O)CNC(=O)[C@H](CC(=O)O)NC(=O)C(C)(C)NC(=O)[C@H](Cc1c[nH]cn1)NC(C)=O)[C@@H](C)O)[C@@H](C)CC)C(=O)NC(C)(C)C(=O)N[C@@H](CC(C)C)C(=O)N[C@@H](CC(=O)O)C(=O)N[C@@H](CC(N)=O)C(=O)N[C@@H](CC(C)C)C(=O)N[C@@H](C)C(=O)N[C@@H](C)C(=O)N[C@@H](CCCNC(=N)N)C(=O)N[C@@H](CC(=O)O)C(=O)N[C@@H](Cc1ccccc1)C(=O)N[C@H](C(=O)N[C@@H](CC(N)=O)C(=O)N[C@@H](Cc1c[nH]c2ccccc12)C(=O)N[C@@H](CC(C)C)C(=O)N[C@H](C(=O)N[C@@H](CCC(N)=O)C(=O)N[C@H](C(=O)N[C@@H](CCCCN)C(=O)N[C@H](C(=O)N[C@H](C(=O)N[C@@H](CCCCN)C(=O)O)[C@@H](C)O)[C@@H](C)CC)[C@@H](C)O)[C@@H](C)CC)[C@@H](C)CC)C(=O)O) [Compound no. 36]
108%		Palmitoyl-H[Aib]DGTFISDYSTILDNLAARDFIEWLIQTKIT-OH (SMILES CCCCCCCCCCCCCCCC(=O)N[C@@H](Cc1c[nH]cn1)C(=O)NC(C)(C)C(=O)N[C@@H](CC(=O)O)C(=O)NCC(=O)N[C@H](C(=O)N[C@@H](Cc1ccccc1)C(=O)N[C@H](C(=O)N[C@@H](CO)C(=O)N[C@@H](CC(=O)O)C(=O)N[C@@H](Cc1ccc(O)cc1)C(=O)N[C@@H](CO)C(=O)N[C@H](C(=O)N[C@H](C(=O)N[C@@H](CC(C)C)C(=O)N[C@@H](CC(=O)O)C(=O)N[C@@H](CC(N)=O)C(=O)N[C@@H](CC(C)C)C(=O)N[C@@H](C)C(=O)N[C@@H](C)C(=O)N[C@@H](CCCNC(=N)N)C(=O)N[C@@H](CC(=O)O)C(=O)N[C@@H](Cc1ccccc1)C(=O)N[C@H](C(=O)N[C@@H](CCC(=O)O)C(=O)N[C@@H](Cc1c[nH]c2ccccc12)C(=O)N[C@@H](CC(C)C)C(=O)N[C@H](C(=O)N[C@@H](CCC(N)=O)C(=O)N[C@H](C(=O)N[C@@H](CCCCN)C(=O)N[C@H](C(=O)N[C@H](C(=O)O)[C@@H](C)O)[C@@H](C)CC)[C@@H](C)O)[C@@H](C)CC)[C@@H](C)CC)[C@@H](C)CC)[C@@H](C)O)[C@@H](C)CC)[C@@H](C)O) [Compound no. 8]
106%		H[Aib]DGTFISDYSK([γGlu-Palmitoyl])[Aib]LDNLAARDFINWLIQTKITK-OH (N-terminus assumed; SMILES CCCCCCCCCCCCCCCC(=O)N[C@@H](CCC(=O)NCCCC[C@H](NC(=O)[C@H](CO)NC(=O)[C@H](Cc1ccc(O)cc1)NC(=O)[C@H](CC(=O)O)NC(=O)[C@H](CO)NC(=O)[C@@H](NC(=O)[C@H](Cc1ccccc1)NC(=O)[C@@H](NC(=O)CNC(=O)[C@H](CC(=O)O)NC(=O)C(C)(C)NC(=O)[C@@H](N)Cc1c[nH]cn1)[C@@H](C)O)[C@@H](C)CC)C(=O)NC(C)(C)C(=O)N[C@@H](CC(C)C)C(=O)N[C@@H](CC(=O)O)C(=O)N[C@@H](CC(N)=O)C(=O)N[C@@H](CC(C)C)C(=O)N[C@@H](C)C(=O)N[C@@H](C)C(=O)N[C@@H](CCCNC(=N)N)C(=O)N[C@@H](CC(=O)O)C(=O)N[C@@H](Cc1ccccc1)C(=O)N[C@H](C(=O)N[C@@H](CC(N)=O)C(=O)N[C@@H](Cc1c[nH]c2ccccc12)C(=O)N[C@@H](CC(C)C)C(=O)N[C@H](C(=O)N[C@@H](CCC(N)=O)C(=O)N[C@H](C(=O)N[C@@H](CCCCN)C(=O)N[C@H](C(=O)N[C@H](C(=O)N[C@@H](CCCCN)C(=O)O)[C@@H](C)O)[C@@H](C)CC)[C@@H](C)O)[C@@H](C)CC)[C@@H](C)CC)C(=O)O) [Compound no. 35]
96%		Palmitoyl-HADGTFISDYSTILDNLAARDFINWLIQTKITD [Compound no. 4]
96%		Palmitoyl-HADGTFISDYSTILDNLAARDFINWLIQTKITD [Compound no. 1]
